Test results reported in patent US20070059799A1.
No end group written: not given here.

B1: HBV ENV 339 LVPFVQWF (peptide)
peptide: LVPFVQWF
modifications: not checked
B2: HBV X 64 … (peptide)
peptide: SSAGPCALRF
modifications: not checked
B3: HBV POL 738 NSVVLSRK (peptide)
peptide: NSVVLSRK
modifications: not checked
B4: HBV X 65 … (peptide)
peptide: SAGPCALRF
modifications: not checked
B5: HBV POL 99 LTVNEKRR (peptide)
peptide: LTVNEKRR
modifications: not checked
B6: HBV POL 771 … (peptide)
peptide: SALNPADDPSR
modifications: not checked
B7: HBV NUC 75 NLEDPASR (peptide)
peptide: NLEDPASR
modifications: not checked
B8: HBV POL 377 LWDFSQF (peptide)
peptide: LVVDFSQF
modifications: not checked
B9: HBV NUC 188 RTPSPRRR (peptide)
peptide: RTPSPRRR
modifications: not checked
B10: HBV POL 45 … (peptide)
peptide: NLNVSIPWTHK
modifications: not checked
B11: HBV X 65 SAGPCALR (peptide)
peptide: SAGPCALR
modifications: not checked
B12: HBV POL 520 SAICSVVR (peptide)
peptide: SAICSVVR
modifications: not checked
B13: HBV POL 567 peptide … (peptide)
peptide: GIHLNPNKTK
modifications: not checked
B14: peptide 1.0993 (HBV X 130, …) (peptide)
peptide: KVFVLGGCR
modifications: not checked
B15: peptide 1.0219 (HBV X 1550, …) (peptide)
peptide: FVLGGCRHK
modifications: not checked
B16: peptide 26.0153 (HBV X 64, …) (peptide)
peptide: SSAGPCALR
modifications: not checked
B17: HBV ENV 253 peptide CLIFLLVL (peptide)
peptide: CLIFLLVL
modifications: not checked
B18: HBV NUC 23 peptide … (peptide)
peptide: CLGWLWGMDI
modifications: not checked
B19: HBV POL 533 peptide … (peptide)
peptide: CLAFSYMDDV
modifications: not checked
B20: HBV ENV 249 peptide … (9-mer, as printed) (peptide)
peptide: ILLLCLIFL
modifications: not checked
B21: HBV POL 521 peptide … (peptide)
peptide: AICSVVRRA
modifications: not checked
B22: HBV POL 625 peptide … (peptide)
peptide: IVGLLGFAA
modifications: not checked
B23: HBV ENV 249 peptide … (peptide)
peptide: ILLLCLIFLLV
modifications: not checked
B24: HBV ENV 312 peptide … (peptide)
peptide: CIPIPSSWA
modifications: not checked
B25: HBV X 102 peptide … (peptide)
peptide: AMSTTDLEA
modifications: not checked
B26: HBV POL 42 peptide … (peptide)
peptide: NLGNLNVSI
modifications: not checked
B27: HBV POL 406 peptide … (peptide)
peptide: NLLSSNLSWL
modifications: not checked
B28: HBV NUC 119 peptide LVSFGVWI (peptide)
peptide: LVSFGVWI
modifications: not checked
B29: HBV ENV 243 8-mer FIIFLFIL (peptide)
peptide: FIIFLFIL
modifications: not checked
B30: HBV POL 40 9-mer … (peptide)
peptide: DLNLGNLNV
modifications: not checked
B31: HBV ENV 184 LLTRILTI (peptide)
peptide: LLTRILTI
modifications: not checked
B32: HBV POL 752 … (peptide)
peptide: LLGCAANWI
modifications: not checked
B33: HBV ENV 254 LIFLLVLL (peptide)
peptide: LIFLLVLL
modifications: not checked
B34: HBV ENV 246 9-mer … (peptide)
peptide: FLFILLLCL
modifications: not checked
B35: HBV ENV 260 LLDYQGML (peptide)
peptide: LLDYQGML
modifications: not checked
B36: […] (HBV POL 414) (peptide)
peptide: WLSLDVSAAFY
modifications: not fully specified
B37: HBV POL 519 … (peptide)
peptide: TSAICSVVRR
modifications: not checked
B38: HBV ENV 253 … (peptide)
peptide: CLIFLLVLLDY
modifications: not checked
B39: HBV POL 528 peptide … (peptide)
peptide: RAFPHCLAF
modifications: not checked
B40: HBV NUC 177 peptide […] (as printed) (peptide)
peptide: VVRRRGRSPR
modifications: not checked
B41: HBV POL 627 peptide … (peptide)
peptide: GLLGFAAPF
modifications: not checked
B42: HBV NUC 169 … (peptide)
peptide: LSTLPETTVVR
modifications: not checked
B43: HBV POL 412 … (peptide)
peptide: LSWLSLDVSA
modifications: not checked
B44: … (HBV POL 122) (peptide)
peptide: YLPLDKGIKPY
modifications: not checked
B45: HBV POL 739 SVVLSRKY (peptide)
peptide: SVVLSRKY
modifications: not checked
B46: HBV NUC 163 peptide … (peptide)
peptide: RSPRRRTPSPR
modifications: not checked

Biological target: HLA-A*0301 (human)
Test: not given
Conditions: not given

Row | Binder | binding affinity ratio (IC50 of standard peptide / IC50 of test peptide)
1 | B1 | 0.0028
2 | B2 | -0.0003
3 | B3 | 0.0006
4 | B4 | -0.0003
5 | B5 | -0.0002
6 | B6 | -0.0004
7 | B7 | -0.0002
8 | B8 | 0.0016
9 | B9 | -0.0002
10 | B10 | -0.0009

Same assay, conditions: remark: other sources report otherwise

Row | Binder | binding affinity ratio (IC50 of standard peptide / IC50 of test peptide)
11 | B11 | -0.0002
12 | B12 | -0.0002

Biological target: HLA-A*3301 (human)
Test: competition with 125I-labelled probe peptide for purified HLA, gel filtration
Conditions: not given

Row | Binder | binding affinity ratio (IC50 of standard peptide / IC50 of test peptide)
13 | B13 | 0.0009

Biological target: HLA-A*3101 (human)
Test: as above
Conditions: not given

Row | Binder | binding affinity ratio (IC50 of standard peptide / IC50 of test peptide)
14 | B13 | 0.0009

Same assay, conditions: remark: other sources report otherwise

Row | Binder | IC50
15 | B14 | 30 nM
16 | B15 | 1500 nM
17 | B16 | 55 nM

Biological target: HLA-A*0201 (human)
Test: competition with 125I-labelled standard peptide for purified HLA, gel filtration
Conditions: not given

Row | Binder | binding affinity ratio (IC50 of standard peptide / IC50 of test peptide)
18 | B17 | 0.0002
19 | B18 | 0.0093
20 | B19 | 0.0008
21 | B20 | 0.0015
22 | B21 | 0.0001
23 | B22 | 0.0009
24 | B23 | 0.0056
25 | B24 | 0.001

Same assay, conditions: remark: other sources report otherwise

Row | Binder | binding affinity ratio (IC50 of standard peptide / IC50 of test peptide)
26 | B25 | 0.0013

Biological target: HLA-A*0201 (human)
Test: not given
Conditions: not given

Row | Binder | binding affinity ratio (IC50 of standard peptide / IC50 of test peptide)
27 | B26 | 0.0047
28 | B27 | 0.0016
29 | B28 | 0.0004
30 | B29 | 0.0006
31 | B30 | 0.0004
32 | B31 | 0.0026
33 | B32 | 0.0011
34 | B33 | 0.0025
35 | B34 | 0.0002
36 | B35 | 0.0004

Biological target: HLA-A*0301 (human)
Test: not given
Conditions: not given
Remark: another data set of the same source

Row | Binder | binding affinity ratio (IC50 of standard peptide / IC50 of test peptide)
37 | B36 | 0.0034
38 | B37 | 0.0018
39 | B38 | 0.0083
40 | B39 | 0.0015
41 | B40 | 0.0027
42 | B41 | 0.0006
43 | B42 | -0.0009
44 | B43 | 0.0048
45 | B44 | -0.0004
46 | B45 | -0.0002
47 | B46 | -0.0007
